Measured values taken from publication PMC11077774.

B1: full-length GTP-bound Rab6a/Q72L with N-terminal GST tag [human] / BicD2-CTD (C-terminal cargo-binding domain of human Bicaudal D2, residues 715-804) [human] (parent)
chain 1: YENEKAMVTETMMKLRNELKALKEDAATFSSLRAMFATRCDEYITQLDEMQRQLAAAEDEKKTLNSLLRMAIQQKLALTQRLELLELDHE
chain 2: MSTGGDFGNPLRKFKLVFLGEQSVGKTSLITRFMYDSFDNTYQATIGIDFLSKTMYLEDRTVRLQLWDTAGLERFRSLIPSYIRDSTVAVVVYDITNVNSFQQTTKWIDDVRTERGSDVIIMLVGNKTDLADKRQVSIEEGERKAKELNVMFIETSAKAGYNVKQLFRRVAAALPGMESTQDRSREDMIDIKLEKPQEQPVSEGGCSC

Variants of: B1
Test: GST pull-down, SDS-PAGE band quantification
Settings: with BicD2-CTD (C-terminal cargo-binding domain of human Bicaudal D2, residues 715-804) [human]; parent: 1; read off a plot

Variant	ratio to parent
chain 2 S23A	0.96
chain 2 T45A	0.01
chain 2 F38A	0.01
chain 2 Q22A	0.97

Now from value to variant:

ratio to parent	Variant
0.09	chain 2 W67A
0.07	chain 2 T69A
